Test results from patent publication US20240254234A1 (NOVIMMUNE, published 2024).

Tests used:
[1] = biological target: PD-L1 on engineered CHO-K1 artificial Antigen Presenting Cells (aAPC) (Homo sapiens (Human), UniProt Q9NZQ7 19-290); assay: cell-based or functional assay
[2] = biological target: T1, PD-L1 on HPAC cells (pre-activated with IFNγ) (human, UniProt Q9NZQ7 19-290); assay: flow cytometry on IFNγ-activated HPAC cells (PD-L1+), anti-human IgG secondary antibody, geometric mean
T1 construct: whole, on cells; also called PD-L1 expressing HPAC cells
Experimental: Cells were harvested, checked for viability and counted. 200′000 cells were incubated for 15 minutes at 4° C. with increasing concentrations of the antibodies diluted in FACS buffer (PBS 2% BSA, 0.1% NaN3). Cells were washed twice with cold FACS buffer and re-incubated for further 15 minutes at 4′C with a suitable anti-human IgG secondary antibody. Cells were washed twice with cold FACS buffer and resuspended in 150 μl FACS buffer with a compatible viability marker. Binding of antibodies to living cells was measured by flow cytometry using a Cytoflex Platform (Beckman Coulter). Data was analyzed with FlowJo™ v10 software (BD Life Sciences) and dose-response binding curves were drawn using GiraphPad Prism 9 software.

[3] = biological target: T2, human CD32a R167 (human, UniProt P12318 36-218); assay: Octet (printed: Octet surface plasmon resonance)
T2 construct: Allelic variant named only as R167; also called hCD32a R167
T2 sequence (looked up): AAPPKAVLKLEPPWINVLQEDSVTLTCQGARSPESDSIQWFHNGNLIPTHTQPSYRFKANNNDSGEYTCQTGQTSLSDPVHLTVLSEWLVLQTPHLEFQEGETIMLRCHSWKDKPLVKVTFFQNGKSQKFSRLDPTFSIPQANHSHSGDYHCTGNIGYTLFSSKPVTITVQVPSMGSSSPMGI

[4] = biological target: T3, human CD32b (human, UniProt P31994 43-217); assay: Octet (printed: Octet surface plasmon resonance)
T3 construct: also called hCD32b
T3 sequence (looked up): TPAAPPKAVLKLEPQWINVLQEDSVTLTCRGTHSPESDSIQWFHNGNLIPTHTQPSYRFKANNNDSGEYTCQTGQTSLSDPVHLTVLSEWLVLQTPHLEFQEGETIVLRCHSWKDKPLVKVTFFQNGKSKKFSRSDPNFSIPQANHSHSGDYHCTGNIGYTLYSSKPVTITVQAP

[5] = biological target: T4, human CD16a V158 (human, UniProt P08637 17-208); assay: Octet (printed: Octet surface plasmon resonance)
T4 construct: Allelic variant named only as V158; also called hCD16a V158

[6] = biological target: T5, human CD16b NA2 (human, UniProt O75015 17-200, limits assumed); assay: Octet (printed: Octet surface plasmon resonance)
T5 construct: also called hCD16b NA2

[7] = biological target: T6, human CD16a F158 (human, UniProt P08637 17-208); assay: Octet (printed: Octet surface plasmon resonance)
T6 construct: Allelic variant named only as F158; also called hCD16a F158

[8] = biological target: T7, human CD32a H167 (human, UniProt P12318 36-218); assay: Octet (printed: Octet surface plasmon resonance)
T7 construct: Allelic variant named only as H167; also called hCD32a H167
T7 sequence (looked up): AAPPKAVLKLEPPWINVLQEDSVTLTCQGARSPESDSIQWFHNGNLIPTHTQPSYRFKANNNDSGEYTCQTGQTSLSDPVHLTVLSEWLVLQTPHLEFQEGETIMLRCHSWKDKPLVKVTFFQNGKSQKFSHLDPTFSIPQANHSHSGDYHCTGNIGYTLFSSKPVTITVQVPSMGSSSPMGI

[9] = biological target: T8, mouse neonatal Fc Receptor (FcRn) (mouse, UniProt Q61559 22-297; P01887 21-119); assay: Octet (printed: Octet surface plasmon resonance), n = 2
T8 construct: also called FcRn (Mouse)
T8 sequence (looked up) 1: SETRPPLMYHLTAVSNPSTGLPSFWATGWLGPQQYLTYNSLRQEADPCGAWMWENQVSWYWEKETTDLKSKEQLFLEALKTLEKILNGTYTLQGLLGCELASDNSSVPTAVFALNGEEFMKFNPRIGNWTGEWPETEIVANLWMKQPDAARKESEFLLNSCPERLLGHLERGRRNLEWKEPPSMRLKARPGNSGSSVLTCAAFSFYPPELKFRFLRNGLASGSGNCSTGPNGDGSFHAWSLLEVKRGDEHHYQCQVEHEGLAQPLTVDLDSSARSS
T8 sequence (looked up) 2: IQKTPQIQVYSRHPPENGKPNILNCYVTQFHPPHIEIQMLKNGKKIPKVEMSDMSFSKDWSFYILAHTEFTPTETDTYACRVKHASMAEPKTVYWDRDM

[10] = biological target: T9, cynomolgus neonatal Fc Receptor (FcRn) (cynomolgus, UniProt Q8SPV9 24-297; Q8SPW0 21-119); assay: as above
T9 construct: also called FcRn (Cynomolgus)

[11] = biological target: T10, human neonatal Fc Receptor (FcRn) (human, UniProt P55899 24-297; P61769 21-119); assay: as above
T10 construct: also called FcRn (Human)

[12] = biological target: T11, mouse CD16 (mouse, UniProt P08508 31-215); assay: Octet (printed: Octet surface plasmon resonance)
T11 construct: also called mCD16
T11 sequence (looked up): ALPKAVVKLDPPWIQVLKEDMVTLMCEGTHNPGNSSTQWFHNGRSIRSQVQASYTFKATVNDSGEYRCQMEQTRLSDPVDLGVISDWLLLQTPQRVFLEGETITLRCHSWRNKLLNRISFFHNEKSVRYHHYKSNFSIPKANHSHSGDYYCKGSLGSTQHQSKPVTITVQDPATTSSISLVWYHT

[13] = biological target: T12, mouse CD64 (mouse, UniProt P26151 25-297); assay: Octet (printed: Octet surface plasmon resonance)
T12 construct: also called mCD64
T12 sequence (looked up): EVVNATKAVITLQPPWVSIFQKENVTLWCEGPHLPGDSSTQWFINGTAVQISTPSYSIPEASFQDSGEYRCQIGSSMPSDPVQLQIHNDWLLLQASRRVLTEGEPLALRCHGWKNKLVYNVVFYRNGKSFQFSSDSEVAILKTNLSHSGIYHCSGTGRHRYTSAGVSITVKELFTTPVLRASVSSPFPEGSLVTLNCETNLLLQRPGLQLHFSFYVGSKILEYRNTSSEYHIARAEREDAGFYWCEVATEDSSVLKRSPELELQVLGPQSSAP

[14] = biological target: T13, mouse CD32b (mouse, UniProt P08101 30-207); assay: Octet (printed: Octet surface plasmon resonance)
T13 construct: also called mCD32b
T13 sequence (looked up): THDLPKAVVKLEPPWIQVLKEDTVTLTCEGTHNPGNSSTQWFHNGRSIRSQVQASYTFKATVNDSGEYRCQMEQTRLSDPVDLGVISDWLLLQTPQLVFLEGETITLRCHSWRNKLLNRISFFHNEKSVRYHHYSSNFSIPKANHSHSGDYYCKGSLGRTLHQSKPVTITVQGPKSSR

[15] = biological target: T14, cynomolgus CD16 (cynomolgus, UniProt Q8SPW2 17-208); assay: Octet (printed: Octet surface plasmon resonance)
T14 construct: also called cyCD16

[16] = biological target: T15, mouse CD28 (mouse, UniProt P31041 20-149, limits assumed); assay: Octet (printed: Octet surface plasmon resonance), n = 2
T15 construct: Recombinant form not described; also called CD28 (Mouse)

[17] = biological target: T16, human CD28 (human, UniProt P10747 19-152); assay: as above
T16 construct: Recombinant form not described; also called CD28 (Human)

[18] = biological target: T17, cynomolgus PD-L1 (cynomolgus, UniProt G7PSE7 19-238); assay: as above
T17 construct: Recombinant form not described; also called PD-L1 (Cynomolgus)

[19] = biological target: T18, human PD-L1 (human, UniProt Q9NZQ7 19-238); assay: as above
T18 construct: Recombinant form not described; also called PD-L1 (Human); B7-H1

[20] = biological target: T19, mouse PD-L1 (mouse, UniProt Q9EP73 19-238, limits assumed); assay: as above
T19 construct: Recombinant form not described; also called PD-L1 (Mouse)

[21] = biological target: T20, human CD64 (human, UniProt P12314 16-288); assay: Octet (printed: Octet surface plasmon resonance), n = 1
T20 construct: also called hCD64

[22] = biological target: T21, cynomolgus CD28 (cynomolgus, UniProt Q0PDN3 19-152); assay: Octet (printed: Octet surface plasmon resonance)
T21 construct: Recombinant form not described; also called CD28 (Cynomolgus)

T1 sequence (Q9NZQ7 19-290): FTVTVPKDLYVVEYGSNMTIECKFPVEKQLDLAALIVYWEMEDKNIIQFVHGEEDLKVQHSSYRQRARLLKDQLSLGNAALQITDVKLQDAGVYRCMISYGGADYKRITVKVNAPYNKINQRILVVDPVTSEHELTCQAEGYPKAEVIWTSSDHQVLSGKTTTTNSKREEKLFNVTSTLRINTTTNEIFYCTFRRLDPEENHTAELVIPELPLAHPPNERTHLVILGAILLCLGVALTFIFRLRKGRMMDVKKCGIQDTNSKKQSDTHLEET
T6 sequence (P08637 17-208 limits assumed): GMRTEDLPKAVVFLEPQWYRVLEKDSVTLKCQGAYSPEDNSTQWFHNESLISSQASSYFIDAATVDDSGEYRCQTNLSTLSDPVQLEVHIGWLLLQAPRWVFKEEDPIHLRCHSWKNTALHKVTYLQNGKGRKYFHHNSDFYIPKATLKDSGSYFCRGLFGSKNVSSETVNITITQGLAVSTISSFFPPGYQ
T19 sequence (Q9EP73 19-238 limits assumed): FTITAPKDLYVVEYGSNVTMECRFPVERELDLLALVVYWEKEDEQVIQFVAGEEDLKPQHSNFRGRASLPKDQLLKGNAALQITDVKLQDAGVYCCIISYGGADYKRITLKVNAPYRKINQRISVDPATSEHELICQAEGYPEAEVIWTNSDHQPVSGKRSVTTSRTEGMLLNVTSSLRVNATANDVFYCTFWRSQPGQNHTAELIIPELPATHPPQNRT
T4 sequence (P08637 17-208 F176V limits assumed): as the sequence (P08637 17-208 limits assumed) above, with F160V counted along it
T5 sequence (O75015 17-200 N65S limits assumed): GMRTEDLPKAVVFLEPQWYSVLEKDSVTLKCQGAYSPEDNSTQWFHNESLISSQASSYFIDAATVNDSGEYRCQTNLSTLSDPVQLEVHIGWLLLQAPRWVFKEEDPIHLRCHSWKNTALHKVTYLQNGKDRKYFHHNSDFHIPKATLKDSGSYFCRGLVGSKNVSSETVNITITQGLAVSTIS
T20 sequence (P12314 16-288 limits assumed): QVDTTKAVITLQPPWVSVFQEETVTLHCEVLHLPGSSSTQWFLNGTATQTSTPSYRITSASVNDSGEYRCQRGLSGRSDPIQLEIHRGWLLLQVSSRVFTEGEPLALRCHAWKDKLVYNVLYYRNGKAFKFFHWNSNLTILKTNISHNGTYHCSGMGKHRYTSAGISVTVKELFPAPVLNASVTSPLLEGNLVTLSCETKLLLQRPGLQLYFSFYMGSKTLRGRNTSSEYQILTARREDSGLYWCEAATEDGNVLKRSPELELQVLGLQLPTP
Sequence of PD-L1 on engineered CHO-K1 artificial Antigen Presenting Cells (aAPC) (Q9NZQ7 19-290 limits assumed, change not shown): as the sequence (Q9NZQ7 19-290) above
T17 sequence (G7PSE7 entry or part of it): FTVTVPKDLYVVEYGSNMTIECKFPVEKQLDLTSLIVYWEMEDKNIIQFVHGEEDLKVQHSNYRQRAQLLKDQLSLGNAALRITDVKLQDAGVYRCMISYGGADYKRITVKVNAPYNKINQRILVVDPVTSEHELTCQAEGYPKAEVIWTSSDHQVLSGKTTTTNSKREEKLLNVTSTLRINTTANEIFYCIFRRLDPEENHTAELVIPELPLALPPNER
T15 sequence (P31041 20-149 limits assumed): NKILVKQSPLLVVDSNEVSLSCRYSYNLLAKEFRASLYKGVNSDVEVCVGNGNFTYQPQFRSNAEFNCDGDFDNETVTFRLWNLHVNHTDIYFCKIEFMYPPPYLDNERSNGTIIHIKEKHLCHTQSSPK
T10 sequence (P55899 24-297 limits assumed, chain 1 of 2): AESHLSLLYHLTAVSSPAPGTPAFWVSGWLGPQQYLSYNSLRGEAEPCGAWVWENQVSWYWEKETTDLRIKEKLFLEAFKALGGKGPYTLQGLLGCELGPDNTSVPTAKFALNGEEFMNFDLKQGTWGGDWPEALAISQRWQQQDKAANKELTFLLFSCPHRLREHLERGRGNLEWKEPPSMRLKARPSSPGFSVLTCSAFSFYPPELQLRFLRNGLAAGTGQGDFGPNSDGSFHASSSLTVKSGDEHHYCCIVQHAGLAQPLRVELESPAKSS
T10 sequence (P61769 21-119 limits assumed, chain 2 of 2): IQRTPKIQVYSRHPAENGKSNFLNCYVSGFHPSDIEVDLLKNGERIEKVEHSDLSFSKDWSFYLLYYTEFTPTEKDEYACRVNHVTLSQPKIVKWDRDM
T14 sequence (Q8SPW2 17-208 limits assumed): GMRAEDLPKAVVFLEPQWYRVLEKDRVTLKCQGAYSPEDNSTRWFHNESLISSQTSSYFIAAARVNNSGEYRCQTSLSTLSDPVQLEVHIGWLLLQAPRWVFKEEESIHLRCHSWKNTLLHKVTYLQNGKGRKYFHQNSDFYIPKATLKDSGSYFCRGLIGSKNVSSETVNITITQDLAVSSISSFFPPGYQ
T18 sequence (Q9NZQ7 19-238 limits assumed): as the sequence (G7PSE7 entry or part of it) above, with T33A, S34A, N62S, Q68R, R82Q, L173F, A185T, I192T, L215H counted along it

B1: S79 mAb (antibody, V domains shown)
VH: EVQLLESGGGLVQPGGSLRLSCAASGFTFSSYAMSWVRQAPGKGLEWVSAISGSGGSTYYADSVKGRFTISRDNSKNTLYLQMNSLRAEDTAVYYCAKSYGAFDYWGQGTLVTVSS
VL: QSALTQPASVSGSPGQSITISCTGTSSDVFRPPLVSWYQQHPGKAPKLMIYFASLRPSGVSNRFSGSKSGNTASLTISGLQAEDEADYYCSSWDHTGDGHVFGGGTKLTVL
notes: also called bivalent PD-L1 mAb based on the anti-PD-L1 arm S79
[1]
  EC50 (read off the curve): RLU in the PD-1/PD-L1 blockade bioassay (blocked partner m28): ~0.02 µg/mL
[2]
  EC50 (read off the curve): ~0.6 µg/mL

B2: AI3S79/N (bispecific antibody, human IgG1, kappa, lambda, L234A L235A)
heavy: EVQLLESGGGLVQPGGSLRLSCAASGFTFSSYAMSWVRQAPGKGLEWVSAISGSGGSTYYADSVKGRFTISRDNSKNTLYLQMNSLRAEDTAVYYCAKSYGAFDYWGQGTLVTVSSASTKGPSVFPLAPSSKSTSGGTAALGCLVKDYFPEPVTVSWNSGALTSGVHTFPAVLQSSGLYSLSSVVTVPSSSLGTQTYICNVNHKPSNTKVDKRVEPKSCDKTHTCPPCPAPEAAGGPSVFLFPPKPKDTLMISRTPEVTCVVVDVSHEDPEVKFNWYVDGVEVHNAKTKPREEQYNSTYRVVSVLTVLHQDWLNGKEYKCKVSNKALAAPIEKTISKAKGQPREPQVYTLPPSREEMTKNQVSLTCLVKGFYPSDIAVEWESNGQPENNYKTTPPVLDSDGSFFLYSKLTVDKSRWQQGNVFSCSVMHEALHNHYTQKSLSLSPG
light 1: not shown
light 2: QSALTQPASVSGSPGQSITISCTGTSSDVFRPPLVSWYQQHPGKAPKLMIYFASLRPSGVSNRFSGSKSGNTASLTISGLQAEDEADYYCSSWDHTGDGHVFGGGTKLTVLGQPKAAPSVTLFPPSSEELQANKATLVCLISDFYPGAVTVAWKADSSPVKAGVETTTPSKQSNNKYAASSYLSLTPEQWKSHRSYSCQVTHEGSTVEKTVAPTECS
notes: also called PD-L1xCD28 bsAb; PD-L1xCD28 κλ body
[3]
  binding result: no binding (tested: highest tested concentration: 2000 nM)
[4]
  binding result: no binding (tested: highest tested concentration: 2000 nM)
[5]
  binding result: no binding (tested: highest tested concentration: 2000 nM)
[6]
  binding result: no binding (tested: highest tested concentration: 2000 nM)
[7]
  binding result: no binding (tested: highest tested concentration: 2000 nM)
[8]
  binding result: no binding (tested: highest tested concentration: 2000 nM)
[9]
  Kd: 0.06 nM
[10]
  Kd: 8.6 nM
[11]
  Kd: 7.1 nM
[12]
  binding result: no binding (tested: highest tested concentration: 2000 nM)
[13]
  binding result: no binding (tested: highest tested concentration: 2000 nM)
[14]
  binding result: no binding (tested: highest tested concentration: 2000 nM)
[15]
  binding result: no binding (tested: highest tested concentration: 2000 nM)
[16]
  Kd: 11100 nM
[17]
  Kd: 54 nM
[18]
  Kd: 1.8 nM
[19]
  Kd: 0.3 nM
[20]
  Kd: 0.79 nM
[2]
  EC50 (read off the curve): ~0.9 µg/mL
[21]
  Kd: 804 nM
[22]
  Kd: ~54 nM
